From the RNAGym collection of RNA variant scans (doi:10.1093/molbev/msab373)

B1: Azoarcus group I ribozyme (parent)
chain: GUGCCUUGCGCCGGGAAACCACGCAAGGGAUGGUGUCAAAUUCGGCGAAACCUAAGCGCCCGCCCGGGCGUAUGGCAACGCCGAGCCAAGCUUCGGCGCCUGCGCCGAUGAAGGUGUAGAGACUAGACGGCACCCACCUAAGGCAAACGCUAUGGUGAAGGCAUAGUCCAGGGAGUGGCGAAAGUCACACAAACCGG

Variants of: B1
Assay: reverse-splicing fitness (ratio to wild type); higher = more active; in vitro selection; Mg2+ level not given
Method in brief: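 An in vitro group I ribozyme library with randomized positions was T7-transcribed and gel-purified. In triplicate, 10 pmol RNA in EPPS pH 7.5 was reacted with 50 pmoles of a 30-nt RNA substrate for 1 h at 37 °C across several added MgCl2 levels (1–48 mM), then stopped with EDTA. Products were reverse transcribed from a substrate-complementary primer, PCR-amplified and sequenced (HiSeq 4000). Fitness is a variant's read proportion after selection over that before, normalised to wild type.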
For GUGCCUUGCGCCGGGAAACCACGCAAGGGAUGGUGUCAAAUUCGGCGAAACCUAAGCGCCCGCCCGGGCGUAUGGCAACGCUGAGCCAAGCUUCGGCGCCUGCGCCGAUGUAGGUGUAGCGACUAGACGGCACCCACCUAAGGCAAACGCUAUGGUGAAGGCAUAGUCCAGGGAGGGGCGAAAGUCACACAAACCGG, the reverse-splicing fitness was 0.00482.
With GUGCCUUGCGCCGGGAAACCACGCAAGGGAUGGUGUCAAAUUCGGCGAAACCUAAGCGCCCGCCCGGGCGUAUGGCAACGCUGAGCCAAGCUUCGGCGCCUGCGCCGAUGUAGGUGUAGCGACUAGACGGCACCCACCUAAGGCAAACGCUAUGGUGAAGGCAUAGUCCAGGGAGCGGCGAAAGUCACACAAACCGG the reverse-splicing fitness was 0.0191.
GUGCCUUGCGCCGGGAAACCACGCAAGGGAUGGUGUCAAAUUCGGCGAAACCUAAGCGCCCGCCCGGGCGUAUGGCAACGCUGAGCCAAGCUUCGGCGCCUGCGCCGAUGUAGGUGUAGCGACUAGACGGCACCCACCUAAGGCAAACGCUAUGGUGAAGGCAUAGUCCAGGGAGAGGCGAAAGUCACACAAACCGG showed a reverse-splicing fitness of 0.0144.
In the case of GUGCCUUGCGCCGGGAAACCACGCAAGGGAUGGUGUCAAAUUCGGCGAAACCUAAGCGCCCGCCCGGGCGUAUGGCAACGCUGAGCCAAGCUUCGGCGCCUGCGCCGAUGUAGGUGUAGCGACUAGACGGCACCCACCUAAGGCAAACGUUAUGGUGAAGGCAUAGUCUAGGGAGGGGCGAAAGUCACACAAACCGG, the reverse-splicing fitness is reported as 0.00524.
GUGCCUUGCGCCGGGAAACCACGCAAGGGAUGGUGUCAAAUUCGGCGAAACCUAAGCGCCCGCCCGGGCGUAUGGCAACGCUGAGCCAAGCUUCGGCGCCUGCGCCGAUGUAGGUGUAGCGACUAGACGGCACCCACCUAAGGCAAACGUUAUGGUGAAGGCAUAGUCUAGGGAGCGGCGAAAGUCACACAAACCGG showed a reverse-splicing fitness of 0.0157.
GUGCCUUGCGCCGGGAAACCACGCAAGGGAUGGUGUCAAAUUCGGCGAAACCUAAGCGCCCGCCCGGGCGUAUGGCAACGCUGAGCCAAGCUUCGGCGCCUGCGCCGAUGUAGGUGUAGCGACUAGACGGCACCCACCUAAGGCAAACGUUAUGGUGAAGGCAUAGUCUAGGGAGAGGCGAAAGUCACACAAACCGG showed a reverse-splicing fitness of 0.0177.
For GUGCCUUGCGCCGGGAAACCACGCAAGGGAUGGUGUCAAAUUCGGCGAAACCUAAGCGCCCGCCCGGGCGUAUGGCAACGCUGAGCCAAGCUUCGGCGCCUGCGCCGAUGUAGGUGUAGCGACUAGACGGCACCCACCUAAGGCAAACGUUAUGGUGAAGGCAUAGUCAAGGGAGUGGCGAAAGUCACACAAACCGG, the reverse-splicing fitness was 0.00987.
GUGCCUUGCGCCGGGAAACCACGCAAGGGAUGGUGUCAAAUUCGGCGAAACCUAAGCGCCCGCCCGGGCGUAUGGCAACGCUGAGCCAAGCUUCGGCGCCUGCGCCGAUGUAGGUGUAGCGACUAGACGGCACCCACCUAAGGCAAACGUUAUGGUGAAGGCAUAGUCGAGGGAGUGGCGAAAGUCACACAAACCGG gave a reverse-splicing fitness of 0.00829.
GUGCCUUGCGCCGGGAAACCACGCAAGGGAUGGUGUCAAAUUCGGCGAAACCUAAGCGCCCGCCCGGGCGUAUGGCAACGCUGAGCCAAGCUUCGGCGCCUGCGCCGAUGUAGGUGUAGCGACUAGACGGCACCCACCUAAGGCAAACGUUAUGGUGAAGGCAUAGUCUAGGGAGUGGCGAAAGUCACACAAACCGG showed a reverse-splicing fitness of 0.0134.
With GUGCCUUGCGCCGGGAAACCACGCAAGGGAUGGUGUCAAAUUCGGCGAAACCUAAGCGCCCGCCCGGGCGUAUGGCAACGCUGAGCCAAGCUUCGGCGCCUGCGCCGAUGUAGGUGUAGCGACUAGACGGCACCCACCUAAGGCAAACGUUAUGGUGAAGGCAUAGUCGAGGGAGCGGCGAAAGUCACACAAACCGG the reverse-splicing fitness was 0.0147.
GUGCCUUGCGCCGGGAAACCACGCAAGGGAUGGUGUCAAAUUCGGCGAAACCUAAGCGCCCGCCCGGGCGUAUGGCAACGCUGAGCCAAGCUUCGGCGCCUGCGCCGAUGUAGGUGUAGCGACUAGACGGCACCCACCUAAGGCAAACGUUAUGGUGAAGGCAUAGUCGAGGGAGAGGCGAAAGUCACACAAACCGG showed a reverse-splicing fitness of 0.0138.
GUGCCUUGCGCCGGGAAACCACGCAAGGGAUGGUGUCAAAUUCGGCGAAACCUAAGCGCCCGCCCGGGCGUAUGGCAACGCUGAGCCAAGCUUCGGCGCCUGCGCCGAUGUAGGUGUAGCGACUAGACGGCACCCACCUAAGGCAAACGUUAUGGUGAAGGCAUAGUCGAGGGAGGGGCGAAAGUCACACAAACCGG gave a reverse-splicing fitness of 0.00509.
With GUGCCUUGCGCCGGGAAACCACGCAAGGGAUGGUGUCAAAUUCGGCGAAACCUAAGCGCCCGCCCGGGCGUAUGGCAACGCUGAGCCAAGCUUCGGCGCCUGCGCCGAUGUAGGUGUAGCGACUAGACGGCACCCACCUAAGGCAAACGCUAUGGUGAAGGCAUAGUCGAGGGAGAGGCGAAAGUCACACAAACCGG the reverse-splicing fitness was 0.0148.
Variant GUGCCUUGCGCCGGGAAACCACGCAAGGGAUGGUGUCAAAUUCGGCGAAACCUAAGCGCCCGCCCGGGCGUAUGGCAACGCUGAGCCAAGCUUCGGCGCCUGCGCCGAUGUAGGUGUAGCGACUAGACGGCACCCACCUAAGGCAAACGCUAUGGUGAAGGCAUAGUCGAGGGAGGGGCGAAAGUCACACAAACCGG has a reverse-splicing fitness of 0.0049.
With GUGCCUUGCGCCGGGAAACCACGCAAGGGAUGGUGUCAAAUUCGGCGAAACCUAAGCGCCCGCCCGGGCGUAUGGCAACGCUGAGCCAAGCUUCGGCGCCUGCGCCGAUGUAGGUGUAGCGACUAGACGGCACCCACCUAAGGCAAACGCUAUGGUGAAGGCAUAGUCGAGGGAGCGGCGAAAGUCACACAAACCGG the reverse-splicing fitness was 0.018.
